Data taken from the DeepSol protein solubility set.

Test: soluble on expression in E. coli; label from the status in PepcDB or PDB records

Row | Sequence | soluble on expression in E. coli
1 | MNKKSSSMVNMPAPREPINQKIDTNNALVLNHNAIYEQRLAEITQSNTCDKAIVTVNPYGTAPLSLYLGVWMDEAAALEINVVDSEATTEEVRYQYDVHPGANLIPVCGMVSAVNNQITLRLASQIVGQYTVMTDALPPTDSANVSLGFPIISVSCPAQQASLMEEGLYFSTYFDRYNLAFDHNGIVRWYVSQEIPSYNFVRMDNGHFLATSQGINHCLNMYEFDIMGRVYTVYLLDNEFHHSILPIENNLAIAPSEYSNGRPDGYSTGKDGVSIINLSTGLEVAYYDMLYVMDYSRSPRPSGSAPGQDVSMDDWLHINQSYINEPNNLLICSGRHQSAIFGVNVDSGELRFIMANHEDWSDEFKQYLLTPVDDDGVPLYDLTSPGGIDAADKNFWTWGQHNIVEIPNDEPGILEFMVFDNGNYRSREDAKSLLPLDNFSRVVQFKINLNTMTVTRPYEYGKTEVGNRGYSSFVSAKHLLTNGHLVIHFGATTVDEFEHTITAQPGSSDLVDPDEGQQALGRLVLQEINKETKEVLFEAMVTSGYFKNEETNGTNYRYDISAFRVYKMPLFALEHHHHHH | soluble
2 | MSLSKVRISSKIEDCEEIINQYGGNYLSHLIYSGDKQFFTNENKTAFLMYRYKASSLVVLGDPLGDENAFDELLEAFYNYAEYLGYDVIFYQVTDQHMPLYHNFGNQFFKLGEEAIIDLTQFSTSGKKRRGFRATLNKFDELNISFEIIEPPFSTEFINELQHVSDLWLDNRQEMHFSVGEFNEEYLSKAPIGVMRNEENEVIAFCSLMPTYFNDAISVDLIRWLPELDLPLMDGLYLHMLLWSKEQGYTKFNMGMATLSNVGQLHYSYLRERLAGRVFEHFNGLYRFQGLRRYKSKYNPNWEPRFLVYRKDNSLWESLSKVMRVIRHKEGHHHHHH | soluble
3 | MSLVEIVNRPYAKAFEAFATARPEVLCLSADLTSSCEVDGFRDRHPEQFLTLGMAEQNMLSFAGGLAMQGFRPFIHTFSVFLYRRPYDQLINSIAYSNRKVRLMGFLPGITTPGGITHQAIEDIAVLRAVPNMTILETGDATEVETVLEVADSIDGPVYVRILRGEVPRLFSTPFEFNKLRTLSEGDDILVVSSGVCTEEALRATGPLAARGVGIHHLHASTLKPFDKDGLLRAARGKKGIVTLENHTIIGGLGSLVSEILAEEGLGIRLKRLGLNDTFAHGASKPYLMKKYGLDAGALVSAIEELVGKNLAIGEEELVEVRLDHVHSAQKAEALEGHHHHHH | not soluble
4 | FPSKSKMFEALIERIEQTLTSYINASKRKENSTALAVKAILYTVIEFARKNPGVTRILTGHALMFENSELKLRVAKFFDGLELQFVNILQMRKLREGKAFQDERALAGYLVTFCEGQFLRLVRSNFSSNPHQHFEKQWSLIKPLFE | not soluble
5 | MDYDRYKLFVGGIAKETSEEALKQYFSRYGAVLEAVVAKEKVTGKPRGFGFVRFANDCDVVKALRDTHFILGKPVDVRKAIRKHELYQQPFSMQFLERKVQQMNGGLREMSSNGVTSRTKKIFVGGLSSNTTEEEFKSYFERFGRTTDVVVMHDGVTNRPRGFGFVTYDSEDSVEVVMQSNFHELSDKRVEVKRAIPKEGIQSNNGNAVNIPPSYSSFQATPYVPEQNGYGMVLQFPPPVFGYHHNVQAVQYPYGYQFTAQVANVSWNNPIMQPTGFYCAPPHPTPPPTNNLGYIQYMNGFDLSGTNISGYNPLAWPVTGDAAGALIHQFVDLKLDVHSQAHQRMNGGNMGIPLQNGTYI | soluble
6 | LLEKHGVVVRSSNYELYADLSERMMNVIGRFCDNQYIYSIDESFLYFDHYESCINDWHEYGHKIRKAIWKETRLPVGVGFGETATLSKAANHAAKKLSGFN | not soluble
7 | MIQAVLFDLDGTLADTALDLGGALNTLLARHGLPAKSMDEIRTQASHGAAGLIKLGAGITPDHPDYARWRTEYLDEYDSRYAQDTTLF | not soluble
8 | MGSDKIHHHHHHMLRRIKAEQLQVGMFVARLGGPWHARAFRRSRFLVTSEEQVGEIRSSGVDEVWIDILKGRNAPTPQAATSPWETPEPAPALATANSLPAEFGLARELLQSGKSVIGSMFADVRMGRALEVSGALLLVDSASQSLSRHSQALIALARLKARDDYSYMHAFAVCALMVAVGRTMELPPEEVRDLGLAGLLHDIGKLTLPEAVLHKPTSRRPGEDEEIKRHPSAGYRILNEARLNANIVLDVCVHHHERVDGRGYPFGLVGRELSVHARIAAICDTYDSLTSSRPGHQQWSPARAMEYMAVRVDTLFDSRVFKAFTRTVGIYPLGTVLRLRSNRLAVVCAQHESEPLRPRVMAFYSVSASSALTPEVIDLSTSDDTVVAFEDPADWGYTDEQLLAIYAGQGQAGAAQAAAMAMPAA | not soluble
9 | MKLNRAIGVIDSGVGGLTVAKELIRQLPKERIIYLGDTARCPYGPRSREEVRQFTWEMTEHLLDLNIKMLVIACNTATAVVLEEMQKQLPIPVVGVIHPGSRTALKVTNTYHVGIIGTIGTVKSGAYEEALKSINNRVMVESLACPPFVELVESGNFESEMAYEVVRETLQPLKNTDIDTLILGCTHYPILGPVIKQVMGDKVQLISSGDETAREVSTILYHSKMLNEGEEQSDHLFLTTGKIGLFKEIASKWFGQPIENVKHIHLEKE | not soluble
10 | MFTIRKATSDDCKLINELANQVFPATYKEILSTEQLDYMMEWMYAPENIRKQMEEEGHVYFIAYQGDEPCGYVSVQPQDADVFHLQKIYVLPGFQGAHLGSKLFDHAVQYIKEIHPSPCLMELNVNRNNKALHFYEHKGMKKLREGDFPIGNGYYMNDYIMGLEL | not soluble
11 | MANELTWHDVLAEEKQQPYFLNTLQTVASERQSGVTIYPPQKDVFNAFRFTELGDVKVVILGQDPYHGPGQAHGLAFSVRPGIAIPPSLLNMYKELENTIPGFTRPNHGYLESWARQGVLLLNTVLTVRAGQAHSHASLGWETFTDKVISLINQHREGVVFLLWGSHAQKKGAIIDKQRHHVLKAPQPSPLSAHRGFFGCNHFVLANQWLEQHGETPIDWMPVLPAESE | soluble
12 | MGSDKIHHHHHHMSRLERLVTIDSLIRSRTYPSVADFCARFELSERAIFADLAYLRERIGAPLAYSRRNGGYYYRDPTWVMPMLQVTEGELLAFLISTELSRRYLGTPFAAPLRRLLQRMEAYITEQIVVHPDALLAHLTFQPGALAAVDPELVQVLHECIRECYPVEITYFTASRQELTHRLIEPYHLFLARGDLHVIAFDHLRGELRQFALYRIRQWQVRRHERFVRNPQIDIAAYLRNGFVVEGGTQPLLIEIAFDREQAPYIRERQWHATQQLEDQPDGGVILRFQSGALGEIKRWVLGYGSHARVLSPPELVQMVADELRKAAALYT | not soluble
13 | MKQFSGLSRTIQGNHLLDTCAIDILKIGHRPLVLCAKQEYNTTVESFVKVLTCHGLIVKIVYMEEWDQNSVEECGEVGFRHRADHIIGIGNSSVAACTKAVADLLDLPAVLIPTSPFTTLPWVSVENKKRERPLFNESIQLIIADREQLLTQPTSELINGVVNTLLYLAAIKEVKRNHLFSLVDDILIRSFESVLLRGSLQAIEDFEARILSKEVQDVLEVLSTCVTLDLPSDAWDVIQQIESKLSERREDLVDEPLKRNVVLYLLLSYLTQESEEFQARLKWCQQLLLSANSSNLLSLEAVLKEIALEMGEDGSTRC | soluble
14 | MLSIKGKKWRNWTGNVEGTPHYTMYPESIQDVVEVVGLARKKGKKIRVVGSGHSFTPLVQTEEVLVSLDELKGIVNIDAEKMVAEVWAGTKLYDLGKLLEEKGYAQENLGDIDSQSIAGAISTGTHGTGITFGSLSTQVIEITAVLSNGESIVCSETENVEYWRAFQLSLGMLGIIVKIKLKVIPAYSLVYESEKQSLSTVMNKLEEYKKHRHFEFFVFPYSDEVQVKLTNETTNTGSDLKWHKLKVELLENRMFSLLSKGCKWFPSISKGVSRLSAKAVPNTKIIGPSYEVFATSRTVPFYEMEYSIPSKYMRTVVEEISNLIEKKKYKVHFPIECRYVKGDDIWLSPAYGRDSAYIAVHMYKGMKYAAYFGEVEKIFLKYEGRPHWGKMHTLSYEQLQDIYPEFHSFLQARKSLDELGMFFNPYAEKLFIPLFAGQ | not soluble
15 | MGSDKIHHHHHHMKPHTLLIVDDDDTVAEMLELVLRGAGYEVRRAASGEEALQQIYKNLPDALICDVLLPGIDGYTLCKRVRQHPLTKTLPILMLTAQGDISAKIAGFEAGANDYLAKPFEPQELVYRVKNILARTTIETPTTPVQRGKVITVFGAKGGVGKTTIAVSVALALRLRSRRRVVIVDADLTFGDVAVHLNIAPTRSIIDIVRSGDEIEQEMVKQVLLSHPSGLQALLAPPRPEEAELVSAEHMTRILDLLAVNADYVVVDCQTSYDDRTLSVFDRTDHVLLVITPEIGPLKNTSLFLSLANQLGIDPRAISIVLNRSNSGVGIGVNEIERVLRRKINYHVMSGGQPVVTAVNRGTPLILEQPKHPFVQQILYLADQMMKQLDTNQNVQTDTVTR | not soluble
16 | MATITQRNGKWRVQIRMKGVSRSATFERASDAKAWAARIESQIMDGIQGNAPRNTIFADLIRRYLSEVTPSKRGAREESYRIGRALKTPLAKVRLADLRPQDFADWRDQRLQEVSPTSVGRELTTLSAVCEHAMKEWGLLRENPVRKISKPKKSRARTRRPTEQEIADICAALLYRPNEKPKMAVQRVAVAVLFAIETAMRAGEICGLKWADVNMRRRIAHLPITKNGDSRDVPLSLRAAELIEQLRGIDDTWVFSLDAKSLDVLFRRARDNCGIQGLHFHDTRREALTRLSKKVPVEVLAKISGHRDLRILLNVYYRPDMADIAKMLD | not soluble
17 | MNIAVSKPPLTIRLCGPRGFCAGVDRAIQIVVLALKAYGAPVYVRHEIVHNRYVVEGLEAKGAIFVEELHEIPAEHREQPVVFSAHGVPKSVPEDAQARNLFYLDATCPLVSKVHKQAMRHQRLGRHVVLIGHAGHPEVIGTMGQLPEGTVSLVETVEDAGVYEPVDRENLGFVTQTTLSVDDTAGVIARLQERFPAIQAPAADSICYATTNRQDAVKQAAPGCDLFIVVGAPNSSNSKRLVEVALRAGAKHSVLVQRASEIDWNEIGDIRTVGLSAGASAPEVIVDEIIEAFKARFDTTLDLAVTVEETEHFLVNRELRSIELTTDDMAFVNGNASNALPPKATAGILEHHHHHH | not soluble
18 | MGNASMTKTDIATRVHNHTWKLDPIVRSLIDTDFYKLLMLQMIWKLYPEVDATFSLINRTKTVRLAEEIDEMELREQLDHARTLRLSKKENIWLAGNTFYGRSQIFEPEFLSWLSSYQLPEYELFKRDGQYELNFHGRWMDTTLWEIPALSIINELRSRSAMRSLGYFTLDVLYARAKAKMWEKVERLRELPGLRISDFGTRRRHSFLWQRWCVEALKEGIGPAFTGTSNVLLAMDSDLEAVGTNAHELPMVVAALAQTNEELAAAPYQVLKDWNRLYGGNLLIVLPDAFGTAAFLRNAPEWVADWTGFRPDSAPPIEGGEKIIEWWRKMGRDPRTKMLIFSDGLDVDAIVDTYRHFEGRVRMSFGWGTNLTNDFAGCAPKTIASLKPISIVCKVSDANGRPAVKLSDNPQKATGDPAEVERYLKFFGEEDHKEQKVLVLEHHHHHH | not soluble
19 | MSLYSKDGENYFIVDAHVALWDARRENQRNIHGKQFIDCFYDYHRNLSPASELWPYEDFLYQGGERLMKDLFTDGYVDHAIFQPAHLGAFYNTGFGQTEEAFALTRKHPGMLTYNHCFDPRFEEAGLKQLREDAARFGLKGVKLYTAEWKGDSRGYKLSDPWTYRYLDACRELGIKNIHVHKGPTIRPLDRDAFDVADVDAAASDFTDLNFVVEHCGLPRLEDFCWIATQEPNVHAGLAVAIPFMHTRPRYFAQIIGELLYWLDEDRIQFSSDYALWTPRWIVEQFVDFRIPDDMTGEYPQLTVAQKKKILGLNAAAMYDIEVPAEGHHHHHH | soluble
